In paper PMC8166883 (2020):
Residue numbers refer to the chain shown, from its start.

B1: FLAG-tagged human vascular endothelial growth factor-A (FLAG-hVEGF-A) (ligand)
chain: APMAEGGGQNHHEVVKFMDVYQRSYCHPIETLVDIFQEYPDEIEYIFKPSCVPLMRCGGCCNDEGLECVPTEESNITMQIMRIKPHQGQHIGEMSFLQHNKCECRPKKDRARQENPCGPCSERRKHLFVQDPQTCKCSCKNTDSRCKARQLELNERTCRCDKPRR
B2: anti-hVEGF-A clone A033AM-19 (affinity-matured from A033) (antibody, V domains shown)
VH: EVELVQSGAEVKKPGSSVKVSCKASGGTFSDYSISWVRQAPGQGLEWMGGIIPIFGTPNYAQKFQGRVTITADESTSTAYMELSSLRSEDTAVYYCADGGAYCGGDCYSGYYYYGMDVWGQGTTVTVSS
VL: QSALTQPASVSGSPGQSITISCTGTSSDVGGYNLVSWYQQHPGKAPKLMIYQDNNKRPSGVSNRFSGSKSGNTASLTISGLQAEDEADYYCSYTNDSNSQVFGGGTKLTVL
B3: anti-hVEGF-A clone A033 (antibody, V domains shown)
VH: B2 VH with D31S, S33A
VL: B2 VL

Tests used:
Assay in all cases: SPR
B015 = target: B015
B021 = target: B021
[1] = target: B1

| Kd (B015) | koff (B015) | Kd (B021) | koff (B021) | koff [1] | Binder |
| --- | --- | --- | --- | --- | --- |
| 0.0294 nM | 0.000549 s⁻¹ | 0.903 nM | 0.000577 s⁻¹ |  | B1 |
|  |  |  |  | 0.000411 s⁻¹ | B2 |
|  |  |  |  | 0.00405 s⁻¹ | B3 |
